For 3 molecules, Kd results are on record in PMC5836121 (2017).

For orientation: Kd means the free concentration of one partner at which half of the binding sites on the other are occupied at equilibrium, for simple one-to-one binding.

In one test the target is 225-3 miniprotein (fluorescein (N-(5-fluoresceinyl)maleimide) in fluorescence polarisation; biotin-PEG2-maleimide where immobilised in SPR; unlabelled otherwise). Description: FP; GppNHp.
The target in another test is KRas(WT) (human, UniProt P01116 1-187, 15N-labelled in NMR; biotin on the yBBr tag (by Sfp) in SPR). The test can be described thus: SPR; GppNHp. A general note: SPR reads the build-up and loss of mass on a sensor chip optically.

B1: RalA (natural protein)
chain: MAANKPKGQNSLALHKVIMVGSGGVGKSALTLQFMYDEFVEDYEPTKADSYRKKVVLDGEEVQIDILDTAGQEDYAAIRDNYFRSGEGFLCVFSITEMESFAATADFREQILRVKEDENVPFLLVGNKSDLEDKRQVSVEEAKNRAEQWNVNYVETSAKTRANVDKVFFDLMREIRARKMEDSKEKNGKKKRKSLAKRIRERCCIL
modifications: biotinylated in SPR; unlabelled in fluorescence polarisation
In the test with 225-3 miniprotein, B1 gave a Kd greater than 10 µM.

B2: Rab25 (natural protein)
chain: MGNGTEEDYNFVFKVVLIGESGVGKTNLLSRFTRNEFSHDSRTTIGVEFSTRTVMLGTAAVKAQIWDTAGLERYRAITSAYYRGAVGALLVFDLTKHQTYAVVERWLKELYDHAEATIVVMLVGNKSDLSQAREVPTEEARMFAENNGLLFLETSALDSTNVELAFETVLKEIFAKVSKQRQNSIRTNAITLGSAQAGQEPGPGEKRACCISL
modifications: biotinylated in SPR; unlabelled in fluorescence polarisation
Turning to B2, the Kd in the test with 225-3 miniprotein was greater than 10 µM.

B3: 225-15a/b heterodimeric miniprotein (designed binder)
chain 1: SGPRRPRCPGDQASLEELHEYWARLWNYLYRVAH
chain 2: GGGPRRPRCPGDNASIKQLHAYWQRLYAYLAAVA
modifications: oxidized dimer (disulfide with the other chain) | oxidized dimer (disulfide with the other chain)
For the molecule B3, the Kd with KRas(WT) came out at 0.09 nM.
